Results published in paper doi:10.1101/2023.05.25.542299, “A Conserved Core Region of the Scaffold NEMO is Essential for Signal-induced Conformational Change and Liquid-liquid Phase Separation” (bioRxiv, 2023).

Tests used:
[1] = target: 45-mer peptide of IKKβ (as used in the CD experiments); experiment: circular dichroism (spectra and thermal denaturation with and without ligand); 10 µM NEMO protein with or without equimolar IKKβ 45-mer peptide, incubated 1 h at room temperature; 20 mM sodium phosphate, 500 mM NaCl, pH 7.4; spectra at 25 °C, melt 10 to 70 °C at 222 nm; conditions: both partners purified
[2] = target: FITC-labeled 45-mer peptide derived from the C-terminal region of IKKβ (FITC label (position not given)); experiment: fluorescence polarisation; fluorescence anisotropy binding assay with the FITC-labeled IKKβ 45-mer peptide and NEMO proteins; conditions not told (refs 13, 23); conditions: both partners purified

B1: 7XAla-NEMO (aa 1–419), bacterially expressed (natural protein)
chain: MNRHLWKSQLAEMVQPSGGPAADQDVLGEESPLGKPAMLHLPSEQGAPETLQRALEENQELRDAIRQSNQILRERAEELLHFQASQREEKEFLMAKFQEARKLVERLGLEKLDLKRQKEQALREVEHLKRAQQQMAEDKASVKAQVTSLLGELQESQSRLEAATKEAQALEGRARAASEQARQLESEREALQQQHSVQVDQLRMQGQSVEAALRMERQAASEEKRKLAQLQVAYHQLFQEYDNHIKSSVVGSERKRGMQLEDLKQQLQQAEEALVAKQEVIDKLKEEAEQHKIVMETVPVLKAQADIYKADFQAERQAREKLAEKKELLQEQLEQLQREYSKLKASAQESARIEDMRKRHVEVSQAPLPPAPAYLSSPLALPSQRRSPPEEPPDFCCPKCQYQAPDMDTLQIHVMECIE
In the case of B1, the “increase in Tm with equimolar peptide” value [1] is reported as 3 °C and the Kd [2] is reported as 13 ± 2.9 nM.
